The source of these data is paper PMC9046217, “L-tyrosine-bound ThiH structure reveals C–C bond break differences within radical SAM aromatic amino acid lyases” (Nature Communications, 2022).

The target in test [1] is 2-iminoacetate synthase ThiH from Thermosinus carboxydivorans (Thermosinus carboxydivorans). The experiment in a line: SEC; preparative gel filtration, HiLoad 16/600 S200 prep-grade column, buffer B (50 mM Tris pH 8, 100 mM NaCl), anaerobic.
Test [2] concerns the target T1, TcThiH (2-iminoacetate synthase ThiH) (Thermosinus carboxydivorans, UniProt A1HPQ5).
T1 construct: gene TcarDRAFT_1903; full length, N-terminal Strep-tag kept (MWSHPQFEKA-SGTFYDVIEDYRHFDF...YKDWQAL, 377 residues printed; printed DNA encodes a His6 tag instead); E. coli BL21(DE3) with isc operon and metK; [4Fe-4S] reconstituted; monomer
Nature of the test: X-ray crystal structure, […] Å. Type of test: binding. As to conditions: with L-tyrosine, 5'-deoxyadenosine; bound to the [4Fe-4S] cluster; pH 6.5, anaerobic; SAM cleavage product mimic.

T1 sequence (A1HPQ5 entry or part of it): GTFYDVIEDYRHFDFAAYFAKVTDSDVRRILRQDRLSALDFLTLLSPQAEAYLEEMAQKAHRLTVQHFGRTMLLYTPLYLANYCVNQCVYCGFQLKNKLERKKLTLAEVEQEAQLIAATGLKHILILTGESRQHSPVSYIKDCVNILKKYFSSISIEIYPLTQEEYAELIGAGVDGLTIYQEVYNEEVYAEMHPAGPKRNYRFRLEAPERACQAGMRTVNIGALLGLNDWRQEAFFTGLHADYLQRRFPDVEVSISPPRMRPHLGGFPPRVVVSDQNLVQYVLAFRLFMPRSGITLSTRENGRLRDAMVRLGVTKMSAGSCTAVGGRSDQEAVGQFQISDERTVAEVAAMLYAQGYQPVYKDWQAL

On to “2-iminoacetate synthase ThiH from Thermosinus carboxydivorans (enzyme)”, for which the stoichiometry N in test [1] stood at 2. Consider `CSCC[C@H](N)C(=O)O` [L-methionine], for which the “X-ray crystal structure, 1.27 Å” value in test [2] is “L-methionine bound to the radical SAM [Fe4S4]-cluster and L-tyrosine (Fig. 2b)”.
